Substitutions are numbered along the chain they refer to. Names and notes keep the numbering of the source. Values belong to the molecule of their own block, whether it stands above or below them.
How the values were obtained:
[1] = target: O-fucosylated TSR3 from human thrombospondin-1 (Fuc-O-TSR3) (human)
[2] = substrate: O=c1ccn([C@@H]2O[C@H](CO[P@@](=O)(O)O[P@@](=O)(O)O[C@H]3O[C@H](CO)[C@@H](O)[C@H](O)[C@H]3O)[C@@H](O)[C@H]2O)c(=O)[nH]1; test: UDP-Glo glycosyltransferase assay (UDP release, luminescence), Michaelis-Menten fit; format: biochemical; conditions: donor varied, acceptor Fuc-O-TSR3 (human thrombospondin-1 TSR3), 50 mM Tris/HCl pH 7.5, 37 °C, 20 min, no metal added
Excerpt: UDP-Glo glycosyltransferase assay (UDP release, luminescence), Michaelis-Menten fit on B3GLCTΔREEL (human B3GLCT without REEL motif)

K (half) (μM) for the acceptor substrate Fuc-O-TSR3 in the in vitro glucosyltransferase assay (UDP-Glo; allosteric sigmoidal fit) [1]: 8.04 µM
Molecule: human B3GLCTΔREEL T179S (PTRPLS-like mutant) (from UniProt Q6Y288 1-498) (enzyme)

K (half) (μM) for the acceptor substrate Fuc-O-TSR3 in the in vitro glucosyltransferase assay (UDP-Glo; allosteric sigmoidal fit) [1]: 8.9 µM
Molecule: human B3GLCT with the REEL motif removed (B3GLCTΔREEL), wild type (from UniProt Q6Y288 1-498) (enzyme)

K (half) (μM) for the acceptor substrate Fuc-O-TSR3 in the in vitro glucosyltransferase assay (UDP-Glo; allosteric sigmoidal fit) [1]: 6.64 µM
Molecule: human B3GLCTΔREEL V245M (PTRPLS-like mutant) (from UniProt Q6Y288 1-498) (enzyme)

K (half) (μM) for the acceptor substrate Fuc-O-TSR3 in the in vitro glucosyltransferase assay (UDP-Glo; allosteric sigmoidal fit) [1]: 6.65 µM
Molecule: human B3GLCTΔREEL R337H (PTRPLS-like mutant) (from UniProt Q6Y288 1-498) (enzyme)

K (half) (μM) for the acceptor substrate Fuc-O-TSR3 in the in vitro glucosyltransferase assay (UDP-Glo; allosteric sigmoidal fit) [1]: 5.73 µM
Molecule: human B3GLCTΔREEL Q457R (PTRPLS-like mutant) (from UniProt Q6Y288 1-498) (enzyme)

B1: B3GLCTΔREEL (human B3GLCT without REEL motif) (Homo sapiens) (protein)
chain: SEDTKKEVKQSQDLEKSGISRKNDIDLKGIVFVIQSQSNSFHAKRAEQLKKSILKQAADLTQELPSVLLLHQLAKQEGAWTILPLLPHFSVTYSRNSSWIFFCEEETRIQIPKLLETLRRYDPSKEWFLGKALHDEEATIIHHYAFSENPTVFKYPDFAAGWALSIPLVNKLTKRLKSESLKSDFTIDLKHEIALYIWDKGGGPPLTPVPEFCTNDVDFYCATTFHSFLPLCRKPVKKKDIFVAVKTCKKFHGDRIPIVKQTWESQASLIEYYSDYTENSIPTVDLGIPNTDRGHCGKTFAILERFLNRSQDKTAWLVIVDDDTLISISRLQHLLSCYDSGEPVFLGERYGYGLGTGGYSYITGGGGMVFSREAVRRLLASKCRCYSNDAPDDMVLGMCFSGLGIPVTHSPLFHQARPVDYPKDYLSHQVPISFHKHWNIDPVKVYFTWLAPSDEDKARQETQKGF
notes: secreted from pSecTag2/HygroC, C-terminal Myc-His6 tag kept; native signal peptide replaced by vector signal; C-terminal ER-retention motif REEL (last 4 of 498 residues) removed; forward primer starts near SEDTKKEV; HEK293T medium, Ni-NTA
Km [2]: 25.47 µM | Vmax [2]: 0.0432 µmol/min/mg | kcat [2]: 0.0403 s⁻¹

B2: B3GLCTΔREEL (human B3GLCT without REEL motif) (Homo sapiens; T179S) (protein)
chain: B1 chain with T151S
notes: as for B1
Km [2]: 20.94 µM | Vmax [2]: 0.0324 µmol/min/mg | kcat [2]: 0.0303 s⁻¹

B3: B3GLCTΔREEL (human B3GLCT without REEL motif) (Homo sapiens; V245M) (protein)
chain: B1 chain with V217M
notes: as for B1
Km [2]: 18.74 µM | Vmax [2]: 0.0246 µmol/min/mg | kcat [2]: 0.023 s⁻¹

B4: B3GLCTΔREEL (human B3GLCT without REEL motif) (Homo sapiens; Q457R) (protein)
chain: B1 chain with Q429R
notes: as for B1
Km [2]: 17.39 µM | Vmax [2]: 0.0236 µmol/min/mg | kcat [2]: 0.022 s⁻¹

B5: B3GLCTΔREEL (human B3GLCT without REEL motif) (Homo sapiens; R337H) (protein)
chain: B1 chain with R309H
notes: as for B1
Km [2]: 21.89 µM | Vmax [2]: 0.0277 µmol/min/mg | kcat [2]: 0.0258 s⁻¹
